{
  "source": "patent US20150148405A1",
  "about": "“Expression Construct for a Lin28-Resistant Let-7 Precursor MicroRNA” (THE JOHNS HOPKINS UNIVERSITY, priority 2012, published 2015)",
  "molecules": {"B1": {"name": "BDNF: brain-derived neurotrophic factor, a neurotrophin used to stimulate hippocampal neurons (protein, UniProt P23560 19-247, looked up)", "Neurotrophic factor BDNF …": "APMKEANIRGQGGLAYPGVRTHGTLESVNGPKAGSRGLTSLADTFEHVIEELLDEDQKVRPNEENNKDADLYTSRVMLSSQVPLEPPLLFLLEEYKNYLDAANMSMRVRRHSDPARRGELSVCDSISEWVTAADKKTAVDMSGGTVTVLEKVPVSKGQLKQYFYETKCNPMGYTKEGCRGIDKRHWNSQCRTTQSYVRALTMDSKKRIGWRFIRIDTSCVCTLTIKRGR"}},
  "key": {"[1]": {"test_system": "hippocampal pyramidal neurons", "assay": "Live cell imaging of P-body numbers (GFP-Dcp1a)", "type": "cell-based, mouse", "details": "BDNF-stimulated vs mock, GFP-Dcp1a live imaging, in presence of Actinomycin-D", "method": "Dissociated hippocampal cultures were prepared from postnatal day 0 (P0) mice as previously described (Meffert et al., 2003). Knockdown was by lentiviral-mediated delivery of shRNA to cultures at multiplicity of infection of 5-10, 48 hr before imaging or 4-5 days for GW182. Cultures were preincubated 10-20 min and mock- or BDNF-stimulated (100 ng/mL BDNF) in the presence of Actinomycin-D (0.5 μg/mL), unless indicated otherwise.\nConfocal images of hippocampal pyramidal neurons were acquired on either a Yokogawa spinning disk (Zeiss) at 37° C. (live cells), or a LSM5 Pascal system (fixed cells). Laser power and exposure time were adjusted to minimize photobleaching and avoid saturation. […]\nDissociated hippocampal cultures were prepared from postnatal day 0 (P0) mice as previously described (Meffert et al., 2003) and were maintained in Neurobasal A medium (Gibco, 10888) with B27 Supplement (Gibco 17504-44). […] For live cell imaging, confocal images of hippocampal pyramidal neurons (excitatory, determined by morphology) in 0.24-0.3 μm Z sections were acquired using a 40×, 1.3 NA, EC Plan Neofluoar (whole cells) or a 100×, 1.4 NA Plan Apochromat oil immersion objective (dendrites) on a Yokogawa spinning disk system (Cell Observer, Carl Zeiss) at 37° C. in Tyrodes buffer (in mM: 119 NaCl, 5 KCl, 2 CaCl2, 0.2 MgCl2, Glucose, 25 Hepes, 0.01 Glycine, pH 7.4). […]"}, "[2]": {"test_system": "miRNA reporter (CXCR4 shRNA)", "assay": "CXCR4 miRNA-reporter luciferase assay", "type": "cell-based, mouse", "details": "BDNF stimulation, Actinomycin-D", "excerpt": "The following CXCR4 siRNA/miRNA reporter assay constructs (Addgene) were used: siRNA reporter (PCD FLIP, Plasmid 12567), miRNA reporter (PCD FL4X, 12565), control luciferase reporter (PCD FLOX, 12563), and CXCR4 shRNA (pLKO.1 puro CXCR4 siRNA-2, 12272) (Wang et al., 2006). Let-7 luciferase reporters with wild-type or mutated Let-7 miRNA binding sites were gifts from G. Hannon (Liu et al., 2005b). 3′UTR reporters were constructed by inserting 3′UTRs from GluR1, CaMKIIu or KCC2 downstream of luciferase in pGL3-Control vector (Promega). A Lin28-resistant Let-7 pre-miRNA was generated by mutation of the conserved Lin28 “GGAG” recognition motif to “GtAt” in the terminal loop of pLV-hsa-let-7a-1 (Biosettia). […]\n44 hours post-transfection, hippocampal cultures were treated with serum-reduced media (0.5% B27) and Actinomycin-D (0.5 ng/mL) as previously described, followed by BDNF stimulation 100 ng/mL for 4 hours. Cell lysates were collected in 1×lysis buffer (reporter lysis buffer, Promega), and luciferase (Promega) and chemiluminescent β-gal (Roche) reporter assays carried out according to manufacturer instructions using a plate-reading luminometer (Perkin Elmer). […] When required, fold change was calculated by dividing normalized stimulated samples by normalized unstimulated samples."}},
  "data": [
    {"molecule": "B1", "values": [
      {"measurement": "number of dendritic and somatic P-bodies", "setting": "[1]", "result": "rapid and robust increase in the number of both dendritic and somatic P-bodies"},
      {"measurement": "miRNA-mediated suppression of miRNA reporter by shCXCR4", "setting": "[2]", "result": "greatly enhanced miRNA-mediated suppression"}
    ]}
  ]
}
